This is an account of results in article PMC7318843 (Neuron, 2020).

In this experiment the target is biotin-labeled Aβ40 (UniProt P05067 672-711, biotin (position not given)). The experiment is described as follows: pull-down.

B1: MDK protein (Midkine), human recombinant (natural protein, UniProt P21741 21-143, looked up)
chain: VAKKKDKVKKGGPGSECAEWAWGPCTPSSKDCGVGFREGTCGAQTQRIRCRVPCNWKKEFGADCKYKFENWGACDGGTGTKVRQGTLKKARYNAQCQETIRVTKPCTPKTKAKAKAKKGKGKD
As for B1, the binding result is on record as “binds”.
